{"source": "patent US11279770", "key": {"[1]": {"target": "human ErbB-2 (HER2) (human) (UniProt P04626)", "experiment": "FACS on stable K562-HER2 cells; negative control"}, "[2]": {"target": "human ErbB-2 (HER2) (human) (UniProt P04626)", "experiment": "cell-based or functional assay"}}}
{"substance": "Anti-RSV mAb (antibody)", "values": [{"measurement": "MFI", "setting": "[1]", "result": 276, "unit": "MFI"}]}
{"substance": "trastuzumab + pertuzumab (1:1)", "values": [{"measurement": "MCF-7 IC50 (pM), HRG dependent proliferation", "setting": "[2]", "result": 352, "unit": "pM"}]}
